The text below walks through data of publication PMC3470408.

The data set relates to CC(C)=CCOP(=O)(O)OP(=O)(O)O. Description: purified protein. The settings on record: pH 7.0; 37.0 °C.

As to “Rv0562 (Mycobacterium tuberculosis H37Rv)”, the Km stood at 5 ± 2 µM.
